Measurements taken from paper doi:10.1101/2021.06.01.446590.

Columns and labels:
[1] = biological target: human parkin, full-length (human) (UniProt O60260); assay: ITC
parkin/pUb = parkin/pUb (UniProt O60260); assay: ITC
parkin/pUb, sequence (O60260 whole entry, chain 1 of 2): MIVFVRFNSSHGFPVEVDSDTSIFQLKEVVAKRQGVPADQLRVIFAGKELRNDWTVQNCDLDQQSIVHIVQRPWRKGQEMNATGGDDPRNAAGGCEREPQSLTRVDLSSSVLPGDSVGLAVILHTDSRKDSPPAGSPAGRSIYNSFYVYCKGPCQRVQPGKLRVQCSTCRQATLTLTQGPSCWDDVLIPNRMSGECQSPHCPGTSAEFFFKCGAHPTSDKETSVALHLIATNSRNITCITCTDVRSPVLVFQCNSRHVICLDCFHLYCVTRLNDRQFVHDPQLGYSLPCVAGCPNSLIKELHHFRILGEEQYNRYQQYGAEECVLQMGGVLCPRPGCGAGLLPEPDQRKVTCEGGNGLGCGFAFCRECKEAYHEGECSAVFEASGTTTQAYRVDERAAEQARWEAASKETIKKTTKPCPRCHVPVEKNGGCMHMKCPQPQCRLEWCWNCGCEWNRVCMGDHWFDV
parkin/pUb, sequence (P0CG63 1-76, chain 2 of 2, further chain): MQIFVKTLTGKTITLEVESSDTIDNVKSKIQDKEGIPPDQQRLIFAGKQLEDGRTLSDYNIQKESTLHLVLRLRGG

human parkin, full-length (human), sequence (O60260 whole entry): as the sequence (O60260 whole entry, chain 1 of 2) above
UbcH7~Ub, sequence (P68036 whole entry): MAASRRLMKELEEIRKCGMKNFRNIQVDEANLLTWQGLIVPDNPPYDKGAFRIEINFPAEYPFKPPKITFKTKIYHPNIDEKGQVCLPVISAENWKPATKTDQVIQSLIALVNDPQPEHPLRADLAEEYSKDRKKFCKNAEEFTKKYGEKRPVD
UbcH7~Ub, sequence (P0CG63 1-76): as the sequence (P0CG63 1-76, chain 2 of 2, further chain) above

Row | Kd [1] [nM] | Kd (parkin/pUb) [µM] | Substance
1 | 428 |  | CISD1-pUb (CISD1-Ub phosphorylated at S65 of Ub by PINK1) (from UniProt Q9NZ45 32-108; P0CG63 1-76)
2 |  | 40 | UbcH7~Ub (from UniProt P68036 1-154; P0CG63 1-76) (complex)
3 | 894 |  | mG2^T-pUb (mG2^T-Ub phosphorylated at S65 of Ub by PINK1) (from UniProt Q8IXI2 402-582; P0CG63 1-76)
